Test [1] has as its target T1, mFLAG-EGF34+NRR-His6, the murine Notch1 NRR immunogen (mouse Notch1 V1307-Q1723) (mouse, UniProt Q01705 1307-1723).
T1 construct: N-terminal FLAG tag and C-terminal His tag, expressed in 293-F cells; also called mNotch1 NRR; mouse Notch1 NRR
Put plainly: competitive phage-binding ELISA; phage-displayed Fab pre-mixed with serial dilutions of soluble NRR1, then captured on NRR1-coated plate. The procedure: (§1) To identify the phage antibodies that bound to both human and murine Notch1 NRR, all unique clones were tested for binding to human and murine Notch1 by ELISA. The affinities of phage antibodies were ranked using single spot competition ELISA as described below in this Example. The phage antibody IC50 values were further determined using competitive phage-binding ELISA essentially described in Lee, C. V., et al. (2004) J Mol Biol 340, 1073-93. Briefly, NUNC 96 well Maxisorp immunoplates were coated overnight at 4° C. with 1 μg/ml human NRR1 or murine NRR1, and were blocked for 1 hour at room temperature with blocking buffer PBST (PBS and 1% BSA and 0.05% Tween 20). Phage was mixed with serial dilution of human or murine NRR1 at room temperature for 1 hour before the mixture was added to human and murine NRR1 coated plate. Bound phage were detected with anti-M13 HRP conjugates, developed with TMB substrate for approximately 5 minutes, quenched with 1M H₃PO₄, and read spectrophotometrically at 450 nm.
(§2) In comparison to the OD_{450 nm} reduction (%) of the well of parental phage (100%), clones that had the OD_{450 nm} reduction (%) lower than 50% were picked for sequence analysis. Unique clones were selected for phage preparation to determine binding affinity (phage IC50) by comparison with parental clones (Table 4).
A general note: An ELISA detects its analyte on a solid surface through an enzyme-linked reagent.

Test [2] concerns the target T2, hFLAG-EGF34+NRR-His6 (101V), the human Notch1 NRR immunogen (human Notch1 V1307-Q1733) (human, UniProt P46531 1307-1733).
T2 construct: Secreted from Sf-9 cells; also called hNotch1 NRR; human NRR1
The test is described as above. The procedure:
as §1, §2

For test [3], the target named is T1, mFLAG-EGF34+NRR-His6, the murine Notch1 …. Put plainly: SPR (BIAcore-3000), IgG captured on rabbit anti-human IgG, NRR1-ECD protein injected 3.9-500 nM, 25 C, 1:1 Langmuir. The procedure:
(§3) To further characterize the binding affinity and binding kinetics of the anti-Notch1 NRR Mabs, surface plasmon resonance (SRP) measurement with a BIAcore™-3000 was used (BIAcore, Inc., Piscataway, N.J.). Briefly, carboxymethylated dextran biosensor chips (CM5, BIAcore Inc.) were activated with N-ethyl-N′-(3-dimethylaminopropyl)-carbodiimide hydrochloride (EDC) and N-hydroxysuccinimide (NHS) according to the supplier's instructions. Rabbit anti human antibody (Pierce) was diluted with 10 mM sodium acetate, pH 4.8, into 20 μg/ml before injection at a flow rate of 5 μl/minute to achieve approximately 3000 response units (RU) of coupled antibody. Next, 1M ethanolamine was injected to block unreacted groups. Anti-NRR1 mab (formatted as a full-length IgG) was captured by rabbit anti-human IgG coated on the chips to achieve approximately 200 response units (RU). For kinetics measurements, two-fold serial dilutions of human NRR1-ECD or murine NRR1-ECD proteins (3.9 nM to 500 nM) were injected in PBT buffer (PBS with 0.05% Tween 20) at 25° C. with a flow rate of 30 μl/min. Association rates (kₒₙ) and dissociation rates (koff) were calculated using a simple one-to-one Langmuir binding model (BIAcore Evaluation Software version 3.2). The equilibrium dissociation constant (KD) was calculated as the ratio koff/kₒₙ.
(§4) “NA” signifies that the measurement was not performed.
(In general: In SPR one partner is held on a chip, and binding of the other changes the refractive index at the surface.)

For test [4], the target named is T2, hFLAG-EGF34+NRR-His6 (101V), the human …. The description is as above. The procedure:
as §3, §4

Test [5] has as its target T3, human Notch2 NRR (human, UniProt Q04721 1425-1677).
T3 construct: domain: NRR; It is split here into the two species; also called human NRR2
T3 sequence (looked up): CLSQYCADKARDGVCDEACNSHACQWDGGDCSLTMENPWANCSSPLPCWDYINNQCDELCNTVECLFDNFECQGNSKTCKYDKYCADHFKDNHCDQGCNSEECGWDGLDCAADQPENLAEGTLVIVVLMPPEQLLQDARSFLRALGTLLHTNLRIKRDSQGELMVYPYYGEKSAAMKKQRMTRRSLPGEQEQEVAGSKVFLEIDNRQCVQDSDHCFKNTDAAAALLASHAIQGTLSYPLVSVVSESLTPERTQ
Put plainly: cross-reactivity test of the IgG (Table 3; method not detailed).

For test [6], the target named is T4, murine Notch2 NRR (mouse, UniProt O35516 1425-1679).
T4 construct: domain: NRR; It is split here into the two species; also called mouse NRR2
T4 sequence (looked up): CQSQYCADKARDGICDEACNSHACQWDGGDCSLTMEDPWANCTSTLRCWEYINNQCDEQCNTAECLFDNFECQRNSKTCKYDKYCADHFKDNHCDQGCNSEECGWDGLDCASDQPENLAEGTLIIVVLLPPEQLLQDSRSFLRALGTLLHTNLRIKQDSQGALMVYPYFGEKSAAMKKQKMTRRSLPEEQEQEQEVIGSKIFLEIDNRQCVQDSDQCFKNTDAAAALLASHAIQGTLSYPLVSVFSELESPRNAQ
Described as above.

The target of test [7] is T5, murine Notch4 NRR (mouse, UniProt P31695 1166-1443, limits assumed).
T5 construct: domain: NRR; It is split here into the two species; also called mouse NRR4
T5 sequence (looked up): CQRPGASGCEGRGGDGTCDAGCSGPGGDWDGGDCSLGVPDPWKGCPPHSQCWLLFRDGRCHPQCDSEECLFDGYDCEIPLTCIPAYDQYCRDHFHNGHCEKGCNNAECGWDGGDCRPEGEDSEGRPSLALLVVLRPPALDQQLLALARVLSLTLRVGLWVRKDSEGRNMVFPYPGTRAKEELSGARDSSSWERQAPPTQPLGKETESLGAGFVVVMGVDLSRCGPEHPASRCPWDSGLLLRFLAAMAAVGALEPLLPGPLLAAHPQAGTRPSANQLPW
The test is described as above.

The target in test [8] is T6, human Notch3 NRR (human, UniProt Q9UM47 1378-1643, limits assumed).
T6 construct: domain: NRR; It is split here into the two species; also called human NRR3
The test is described as above.

In test [9] the target is T7, murine Notch3 NRR (mouse, UniProt Q61982 1379-1643, limits assumed).
T7 construct: domain: NRR; It is split here into the two species; also called mouse NRR3
The description is as above.

Test [10] concerns the target T8, human Notch4 NRR (human, UniProt Q99466 1170-1447, limits assumed).
T8 construct: domain: NRR; It is split here into the two species; also called human NRR4
T8 sequence (looked up): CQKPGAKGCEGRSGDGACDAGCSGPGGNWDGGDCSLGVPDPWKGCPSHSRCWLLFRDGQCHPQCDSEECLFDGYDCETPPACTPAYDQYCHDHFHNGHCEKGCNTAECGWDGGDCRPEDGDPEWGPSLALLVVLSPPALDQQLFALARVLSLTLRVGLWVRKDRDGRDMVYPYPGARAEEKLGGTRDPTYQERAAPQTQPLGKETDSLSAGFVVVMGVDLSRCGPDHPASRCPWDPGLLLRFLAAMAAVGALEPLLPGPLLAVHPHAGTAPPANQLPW
Described as above.

Test [11] addresses human Notch1 expressed on NIH-3T3 cells (human, UniProt P46531 19-2555). Briefly: cell-based or functional assay.

Experimental findings from US20180112005A1 (published 2018) are described below.

Residue numbers refer to the chain shown, from its start.

As a reminder, the IC50 is the concentration at which inhibition is half-maximal. A low value points to greater potency in that assay. As usually defined, the Kd is the constant that tells how readily two partners part at equilibrium. A higher Kd goes with lower affinity. The term koff denotes the rate constant with which the complex falls apart. The low end stands for a long-lived complex, the high end for a short-lived complex. As usually defined, the kon is a measure of how fast the partners come together. Low values mean slower complex formation, high ones faster complex formation.

T1 sequence (Q01705 other isoform, or with tags, fused parts or gaps): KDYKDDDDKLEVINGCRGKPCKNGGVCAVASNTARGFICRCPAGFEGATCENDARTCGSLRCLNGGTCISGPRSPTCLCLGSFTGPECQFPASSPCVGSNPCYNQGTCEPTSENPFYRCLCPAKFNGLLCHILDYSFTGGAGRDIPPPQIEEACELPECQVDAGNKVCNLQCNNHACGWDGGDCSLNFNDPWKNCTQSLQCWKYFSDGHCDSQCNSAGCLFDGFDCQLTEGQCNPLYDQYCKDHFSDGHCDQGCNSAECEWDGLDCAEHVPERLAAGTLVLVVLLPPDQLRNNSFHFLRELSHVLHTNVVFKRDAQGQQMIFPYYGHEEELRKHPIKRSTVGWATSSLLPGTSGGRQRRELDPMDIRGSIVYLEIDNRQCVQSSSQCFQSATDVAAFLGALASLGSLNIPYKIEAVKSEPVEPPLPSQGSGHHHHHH
T6 sequence (Q9UM47 1378-1643 limits assumed): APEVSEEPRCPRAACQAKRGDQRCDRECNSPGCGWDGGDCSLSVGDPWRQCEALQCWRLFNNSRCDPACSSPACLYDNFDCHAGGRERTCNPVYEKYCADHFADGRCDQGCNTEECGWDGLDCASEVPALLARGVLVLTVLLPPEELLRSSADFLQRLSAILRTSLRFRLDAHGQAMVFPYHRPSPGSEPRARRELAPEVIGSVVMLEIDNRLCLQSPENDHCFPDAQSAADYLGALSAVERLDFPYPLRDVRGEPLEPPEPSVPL
T7 sequence (Q61982 1379-1643 limits assumed): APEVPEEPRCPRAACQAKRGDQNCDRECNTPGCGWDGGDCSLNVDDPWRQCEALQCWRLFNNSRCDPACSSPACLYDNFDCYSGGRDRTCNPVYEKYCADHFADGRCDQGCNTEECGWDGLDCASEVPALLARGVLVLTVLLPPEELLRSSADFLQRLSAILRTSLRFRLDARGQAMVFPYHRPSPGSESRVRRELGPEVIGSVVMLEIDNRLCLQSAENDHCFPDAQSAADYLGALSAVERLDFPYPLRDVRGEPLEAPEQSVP

B1: Antibody A-1, phage-displayed Fab clone (Fab, V domains shown)
VH: EVQLVESGGGLVQPGGSLRLSCAASGFTFSSYWIHWVRQAPGKGLEWVARINPPNGSAHYADSVKGRFTISADTSKNTAYLQMNSLRAEDTAVYYCARGSGFRWVMDYWGQGTLVTVSS
VL: DIQMTQSPSSLSASVGDRVTITCRASQDVSTAVAWYQQKPGKAPKLLIYSASFLYSGVPSRFSGSGSGTDFTLTISSLQPEDFATYYCQQSYTTPATFGQGTKVEIKR
For B1, the figures for the concentration for half-maximal inhibition (IC50) in [1] and in test [2] were 0.6 nM and 0.8 nM, respectively.

B2: Antibody A-1 (antibody, IgG1, V domains shown)
VH: B1 VH
VL: B1 VL
notes: also called Antibody A-1-hIgG1
For B2, in test [3], the Kd came to 3.88 nM, the off-rate (koff) was determined as 0.00033 s⁻¹ and the kon was found to be 85000 M⁻¹ s⁻¹. In test [4], this molecule showed a dissociation constant Kd of 3.43 nM, an off-rate (koff) of 0.00023 s⁻¹ and an association rate constant (kon) of 67000 M⁻¹ s⁻¹.

B3: Antibody A-3, phage-displayed Fab clone (Fab, V domains shown)
VH: B1 VH with P54A, A58T, H59R
VL: B1 VL with Y92F, T93S
As for B3, the IC50 in test [1] came to 2.5 nM; in test [2], 0.5 nM.

B4: Antibody A (antibody, IgG1, V domains shown)
VH: B1 VH with P54S, A58T, H59N
VL: B1 VL with A96P
notes: also called anti-Notch1 NRR Antibody A; Antibody A-hIgG1
For the molecule B4, the binding result in test [5], in test [6], in [7], in test [8], in test [9] and in test [10] was “no binding” in each case. Also, the “Co-culture blocking, IC50” value in test [11] is roughly 0.1 µg/mL. The results for the Kd in test [3] and in [4] were 231 nM and 134 nM, respectively. Besides, the koff came to 0.021 s⁻¹ in test [3] and 0.011 s⁻¹ in test [4]. For the same molecule, the values for the kon in test [3] and in test [4] were 91000 M⁻¹ s⁻¹ and 82000 M⁻¹ s⁻¹, respectively.

B5: Antibody A-2, phage-displayed Fab clone (Fab, V domains shown)
VH: B1 VH with G56R, A58N, H59Q
VL: B1 VL with S91F, A96S
For B5, the IC50 in test [1] and in [2] was 0.5 nM in each case.

B6: Antibody A-2 (antibody, IgG1, V domains shown)
VH: B1 VH with G56R, A58N, H59Q
VL: B1 VL with S91F, A96S
notes: also called Antibody A-2-hIgG1
In the case of B6, in [3], the Kd amounted to 3.09 nM, the off-rate constant (koff) turned out to be 0.00034 s⁻¹ and the kon stood at 110000 M⁻¹ s⁻¹. In test [4], this molecule had a Kd of 2.53 nM, a koff of 0.00022 s⁻¹ and a kon of 87000 M⁻¹ s⁻¹.

B7: Antibody A-3 (antibody, V domains shown)
VH: B1 VH with P54A, A58T, H59R
VL: B1 VL with Y92F, T93S
In test [3], B7 gave a Kd of 13 nM, a koff of 0.0012 s⁻¹ and a kon of 92000 M⁻¹ s⁻¹. In addition, in test [4], the Kd is 5.88 nM, the koff was found to be 0.0004 s⁻¹ and the kon worked out at 68000 M⁻¹ s⁻¹.
